The results in this text go back to the nanobody polyreactivity screen of Harvey et al. (2022).

The nature of the series: yeast display, Sf9 membrane polyspecificity reagent, FACS + sequencing; frameworks hold sequencing errors. In outline: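 Using colony PCR, genes from sorted yeast display clones were amplified, then sequenced on MiSeq at 2 × 250 and filtered by CDR length. The clones had been stained with 10% biotinylated, detergent-solubilized Sf9 membrane reagent for 1 hour at 4 °C and sorted by FACS into low and high (top ~1%) gates on anti-HA and streptavidin fluorescence. Polyreactivity labels come from the gate of origin.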
On to “QVQLVESGGGLVQAGGSLRLSCAASGYTFPDYAMGWYRQAPGKERELVADITSAGNTYYADSVKGRFTISRDNAKNTVYLQMNSLKPEDTAVYYCNKDDLWENGISYSSPYRLDHWGQGTQVTVSS”, for which the “polyreactivity (PSR sort gate)” value is “low polyreactivity”.

Take “QVQLVESGGGLVQAGGSLRLSCAASGYTFPIYAMGWYRQAPGKERELVATISSGGRTNYADSVKGRFTISRDNAKNTVYLQMKSLKPEDTAVSYCNARRLGWHALYLYDYWGQGTQVTVSS”: the “polyreactivity (PSR sort gate)” value is recorded as “high polyreactivity”.

Turning to “QVQLVESGGGLVQAGGSLRLSCAASGYTFPIYAMGWYRQAPGTERELVAGISKNGGSTYYADSVKGRFTISRDNAKNTVYLQMNSLKPVDTAVYYCNASAWGRPYYLGSYFVYPGYEYWGQGTEVTVSS”, the “polyreactivity (PSR sort gate)” value is listed as “low polyreactivity”.

Regarding “QVQLVESGGGLVQAGGSLRLSCAASGYTFPLYAMGLYRQAPGKEWELVADINIGGASTYYADSVKGRFTISRDHAKNTVYLQMNSLKPEDTAVYYCAKEYYDGYFPTFDYDYWGQGTQVTGSS”, the “polyreactivity (PSR sort gate)” value is given as “low polyreactivity”.

Take “QVQLVESGGGLVQAGGSLRLSCAASGYTFPLYAMGWYRQAPGKERELVATISSSGSRTYYADSVKGRFTISRDNAKNTVYLQMNSLKPEDTAVYYCAARYRAYVKLTSYDWGQGTQVTVSS”: the “polyreactivity (PSR sort gate)” value is on record as “high polyreactivity”.

Consider “QVQLVESGGGLVQAGGSLRLSCAASGYTFPQYAMGWYRQAPGKERELVAAITRRGGSTYYADSVKGRFTISRDNAKNTVYLQMNSLKPEDTAVYYCASDSYPYSLGGDYWGQGTQVTVSS”, for which the “polyreactivity (PSR sort gate)” value is “high polyreactivity”.

“QVQLVESGGGLVQAGGSLRLSCAASGYTFPSNAMGWYRQAPGKERELVAAISSGGRTNYADSVKGRFTISRDNAKNTVYLQMNSLKPEDTGVYYCNADGGPCYPRAYDYWGQGTQVTVSS”: the “polyreactivity (PSR sort gate)” value is on record as “low polyreactivity”.

Take “QVQLVESGGGLVQAGGSLRLSCAASGYTFQGYAMGWYRQAPGKERELVAGISRSGGRTYYADSVKGRFTISRDNAKNTVYLQMNSLKPEDTAVYYCAASYQVRYDYWGQGTQVTVSS”: the “polyreactivity (PSR sort gate)” value was “high polyreactivity”.

In the case of “QVQLVESGGGLVQAGGSLRLSCAASGYTFQKYGMGWYRQAPGNERELVAAITRSSGNTYYADSVKGRFTISRDNAKNTVYLQMNSLKPEDTAVDYCAAYYWGGVKYNYWGQGTQVTVSS”, the “polyreactivity (PSR sort gate)” value is recorded as “high polyreactivity”.

In the case of “QVQLVESGGGLVQAGGSLRLSCAASGYTFQYYAMGWYRQAPGKERELVAAISRGVGSTTYYADSVKGRFTISRDNAKNTVYLQMNSLKPEDTAVYYCNHDFLGDEYDYWGQGTQVTVSS”, the “polyreactivity (PSR sort gate)” value was “high polyreactivity”.

With “QVQLVESGGGLVQAGGSLRLSCAASGYTFRGYAMGWYRQAPGKEREFVAAMNWSDGSTYYADSVKGRFTISRDNPKNTVYLQMNSLKPEDTAVYYCNADQYYRVPDNYWGQGTQVTVSS”, the “polyreactivity (PSR sort gate)” value was “low polyreactivity”.

In the case of “QVQLVESGGGLVQAGGSLRLSCAASGYTFRHYVMGWYRQAPGKERELVAAITYSGGSTYYADSVKGRFTISRDNAKNTVYLQMNSLKPEDTAVYYCAARRRRSDPYDFWGQGTQVTVSS”, the “polyreactivity (PSR sort gate)” value was “high polyreactivity”.

For “QVQLVESGGGLVQAGGSLRLSCAASGYTFRYNAMGWYRQAPGKERELVAAISSSGGRTYYADSVKGRFTISRDYAKNTVYLQMNSLKPEDTAVYYCAADSSVKYWRYQAAYDYWGQGTQVTVSS”, the “polyreactivity (PSR sort gate)” value was “high polyreactivity”.

On to “QVQLVESGGGLVQAGGSLRLSCAASGYTFSAYAMGWYRQAPGKERELVAVINRSGVRTYYADSVKGRFTISRDNAKNTVYLQMNSLKPEDTAVYYCAADYRNTVLEMDYWGQGTQVTVSS”, for which the “polyreactivity (PSR sort gate)” value is listed as “high polyreactivity”.

For “QVQLVESGGGLVQAGGSLRLSCAASGYTFSGYAMGWYRQAPGKERELVAAISKRGGSTYYADSVKGRFTISRDNAKNTVYLQMNSLKPEDTAVYYCAKRSGYRSHYGYWGQGTQVTVSS”, the “polyreactivity (PSR sort gate)” value is “high polyreactivity”.

As to “QVQLVESGGGLVQAGGSLRLSCAASGYTFSNNAMGWYRQAPGKERELFPTINSGGSTNYADSVKGRFTISRDNAKNTVYLQMNSLKPEDTAVYYCAAREDLYLYYNGQRVQYDYWGQGTQVTVSS”, the “polyreactivity (PSR sort gate)” value is on record as “low polyreactivity”.

Regarding “QVQLVESGGGLVQAGGSLRLSCAASGYTFSRYAMGWYRPAPGKERELVAAITGRGGSTYYADSVKGRFTISRDNAKNTVYLLMNSLKPEDTAVYYCAVGRYPYVWRYYYWGQGTQVTVSS”, the “polyreactivity (PSR sort gate)” value is “high polyreactivity”.

Regarding “QVQLVESGGGLVQAGGSLRLSCAASGYTFSRYAMGWYRQAPGKERELVADISRSGGSTDYADSVKGRFTISRDNAKNTVYLQMNSLKPEDTAVYYCAKGSWWGYYSYGFDYWGQGTQVTVSS”, the “polyreactivity (PSR sort gate)” value is given as “high polyreactivity”.

“QVQLVESGGGLVQAGGSLRLSCAASGYTFTINTMGWYRQAPGKERELVAAITWRGGSTYYADSVKGRFTISRDNANNTVYLQMNSLKPEDTAVYYCNKDYYITTTTFDYWGQGTQVTVSS”: the “polyreactivity (PSR sort gate)” value is given as “low polyreactivity”.

“QVQLVESGGGLVQAGGSLRLSCAASGYTFTIYAMGWYRKAPGKERELVAAITGRGGRTNYADSVKGRFTISRDNAKNTVYLQMNSLKPEDTAVYYCNAVTKVVYHGPYGYDYWGQGTQVTVSS”: the “polyreactivity (PSR sort gate)” value is given as “high polyreactivity”.

With “QVQLVESGGGLVQAGGSLRLSCAASGYTFTSNDMGWYRQAPGKERELVAAITWSGGTTYYADSVKGRFTISRDNAKNTVYLQMNSLKPEDTAVYYCAAESTLPIIDRDDYWGQGTQVTVSS”, the “polyreactivity (PSR sort gate)” value is “low polyreactivity”.

Take “QVQLVESGGGLVQAGGSLRLSCAASGYTFVIYAMGSYRQAPGKERELVAAITTIGGRTYYADSVKGRFTISRDNAKNTVYLQMNSLKPEDTAVYYCAADIRSNRLYDGGYWGQGTQVTVSS”: the “polyreactivity (PSR sort gate)” value is listed as “low polyreactivity”.

In the case of “QVQLVESGGGLVQAGGSLRLSCAASGYTFVYNALGWYRQAPGKEREFVAAITWSGTSTRYADSVKGRFTISRDNAKNTVYIQMTSLQPEDTAVYYCAARRRSAQSGSYNHWGQGTQVTVSS”, the “polyreactivity (PSR sort gate)” value is on record as “high polyreactivity”.

With “QVQLVESGGGLVQAGGSLRLSCAASGYTFVYNGMGWYRQAPGKERELVAAITWGGAGTYYADSVKGRFTISRDNAKNTVYLQMISLKPEDTSVYYCAPPSPRSRAYTYRGDYWGQGTQVTVSS”, the “polyreactivity (PSR sort gate)” value was “low polyreactivity”.

On to “QVQLVESGGGLVQAGGSLRLSCAASGYTFVYYAMGLYRQAPGKERELVAAITSGGRTNYADSVKGRFTISRDNAKNTVYLQMKSLKPEDTAVYYCNVDGYYLFVRGYEYWGQGTQVTVSS”, for which the “polyreactivity (PSR sort gate)” value is on record as “low polyreactivity”.

As to “QVQLVESGGGLVQAGGSLRLSCAASGYTFWQYAKGWYRQAPGKERELVVTITSRGGSTYYADSVKGRFTISRDNAKNTVYLHMNSLKPEDTAVYYCNARRRYSTRRSDYWGQGTQVTVSS”, the “polyreactivity (PSR sort gate)” value is recorded as “high polyreactivity”.

Turning to “QVQLVESGGGLVQAGGSLRLSCAASGYTFYAYAMGWYRQAPGTERELVAAITSGSSTYYADSVKGRFTISRDNAKNTVYLQMNSLKPEDTAVYYCSAEVFPGYDYWGQGTQVTVSS”, the “polyreactivity (PSR sort gate)” value is “low polyreactivity”.

Take “QVQLVESGGGLVQAGGSLRLSCAASGYTFYDNAMGWYRQAPGKEREFVASITWSGGSTYYADSVKGRVTISRDNAKNTVYLQMNSLKPEDTAVYYCAAESWFKYDYWGQGTQVTVSS”: the “polyreactivity (PSR sort gate)” value is “low polyreactivity”.

As to “QVQLVESGGGLVQAGGSLRLSCAASGYTFYINGMGWSRQAPGKERELVAVITWSSGSTYYADSVKGRFTISRDNAKNTVYLQMKSLKPEDTAVYYCAADVTYEDGAWTLQYDYWGQGTQVTVSA”, the “polyreactivity (PSR sort gate)” value is on record as “high polyreactivity”.

For “QVQLVESGGGLVQAGGSLRLSCAASGYTFYIYAMGWYIQAPGKERELVAAISWTDGSTYYADSVKGRFTISRDNAMNSVYLQMNSLKPEHTAVYYCAKTSLYAGAKEYDYWGQGTQVTVSS”, the “polyreactivity (PSR sort gate)” value was “low polyreactivity”.
